According to patent US20240141038A1 (SHANGHAI QILU PHARMACEUTICAL RESEARCH AND DEVELOPMENT CENTRE, published 2024):

B1: NKp46-PA26 VHH (his and c-Myc labels) (VHH)
VHH: QVQLVESGGGMVQAGGSLRLSCAASGRTFNTIHWFRQAPGKEREFVARIWWIGGATFYADSVKGRFTISRDNTENLVYLQMNSLKPEDTAVYYCAADARYTSHGYYESDYWGPGTQVTVSS
notes: IPTG-induced E. coli supernatant used in the screening ELISA; also called NKp46-PA26 clone supernatant; not shown: his and c-Myc labels
B2: NKp46-PA3 VHH (his and c-Myc labels) (VHH)
VHH: DVQLVESGGGLVQAGGSLRLSCAASGRTFNTIHWFRQAPGKEREFVARIWWIERTTFYAASVKGRFTISRDNAKNMVYLQMNSLKPEDTAVYYCAADARYTGSRRWESDYWGQGTQVTVSS
notes: IPTG-induced E. coli supernatant used in the screening ELISA; also called NKp46-PA3 clone supernatant; not shown: his and c-Myc labels
B3: NKp46-PA22 VHH (his and c-Myc labels) (VHH)
VHH: QVQLVESGGGLVQAGGSLRLSCTASGRTFETLHWFRQAPGKEREFVARIWWIGGATFYADSVKGRFTISRDNAKNMVYLQMNSLKPEDTAIYYCAADARYTSNRRWESDYWGQGTQVTVSS
notes: IPTG-induced E. coli supernatant used in the screening ELISA; also called NKp46-PA22 clone supernatant; not shown: his and c-Myc labels
B4: NKp46-PC2 VHH (his and c-Myc labels) (VHH)
VHH: QVQLVESGGGLVQPGGSLRLSCAASGFAFSNYNMFWVRQAPGEGFEWISVINRGGDTADYAASVKGRFTISRDNAKNTLYLQMNSLKTEDTAVYYCARDPLGTTRGQGTLVTVSS
notes: IPTG-induced E. coli supernatant used in the screening ELISA; also called NKp46-PC2 clone supernatant; not shown: his and c-Myc labels
B5: NKp46-PA28 VHH (his and c-Myc labels) (VHH)
VHH: QVQLVESGGGLVQAGDSLRLSCVASGRTFSTYAMGWFRQAPGKEREFVAAISRNADTTYYADSVKGRFTISRDNAKNTVYLQMNSLKPEDTAVYYCAADRYSSNTQVGVARTYYDYWGQGTQVTVSS
notes: IPTG-induced E. coli supernatant used in the screening ELISA; also called NKp46-PA28 clone supernatant; not shown: his and c-Myc labels
B6: NKp46-PA24 VHH (his and c-Myc labels) (VHH)
VHH: QVQLVESGGGQVQAGGSLRLSCVASGRTYSIYGMGWFRQAPGKEREVVAAINWSSGHTYYADSVKGRFTISKDNAKNTHYLQMNSLKPEDTAVYYCAADSIYGLSFTVKDYDYWGQGTLVTVSS
notes: IPTG-induced E. coli supernatant used in the screening ELISA; also called NKp46-PA24 clone supernatant; not shown: his and c-Myc labels
B7: NKp46-PA29 VHH (his and c-Myc labels) (VHH)
VHH: QVQLVESGGGWVQPGGSLRLSCAASGRTYSIYGMGWFRQAPGKEREIVAAINWNSGHTYYADSVKGRFTISRDNAKNTHYLQMNSLKPEDTAVYYCAADSIIGLSFTVKDYDYWGQGTQVTVSS
notes: IPTG-induced E. coli supernatant used in the screening ELISA; also called NKp46-PA29 clone supernatant; not shown: his and c-Myc labels
B8: NKp46-PA11 VHH (his and c-Myc labels) (VHH)
VHH: DVQLVESGGGLVQAGGSLRLSCAASGHTESWYRMGWFRQAPGKGREVVGRISGSPGILYYAGSVKGRFTISRDNAKNTLYLQMTNLKPEDTARYYCAADRTGATWDYWGQGTQVTVSS
notes: IPTG-induced E. coli supernatant used in the screening ELISA; also called NKp46-PA11 clone supernatant; not shown: his and c-Myc labels
B9: NKp46-PA27 VHH (his and c-Myc labels) (VHH)
VHH: DVQLVESGGGLVQAGASLRLSCAASGRTESWYRMGWFRQAPGKGREVVARISGDTNIKYYAGSVKGRFTISRDNAKNTLYLQMTNLKPEDTARYYCAADRTGATWDYWGQGTQVTVSS
notes: IPTG-induced E. coli supernatant used in the screening ELISA; also called NKp46-PA27 clone supernatant; not shown: his and c-Myc labels
B10: NKp46-PA15 VHH (his and c-Myc labels) (VHH)
VHH: QVQLVESGGGLVQAGDSLRVSCAASGRTFSTYAMGWFRQAPGKEREFVAASSRDGTTTYYADSVKGRFTISRDNAKNTVYLQMNSLKPEDTAVYYCAASRPLSTTQVGIASAWYEYWGQGTQVTVSS
notes: IPTG-induced E. coli supernatant used in the screening ELISA; also called NKp46-PA15 clone supernatant; not shown: his and c-Myc labels
B11: NKp46-PA19 VHH (his and c-Myc labels) (VHH)
VHH: QVQLVESGGGLVQPGGSLRLACAASGRTFSTYAMGWFRQAPGKEREFVAAISRNGGTTYYADSVKGRFTISRDNAKNTVYLQMNSLKPEDTAVYYCAASRPLSNTQVGVASAWYEFWGQGTLVTVSS
notes: IPTG-induced E. coli supernatant used in the screening ELISA; also called NKp46-PA19 clone supernatant; not shown: his and c-Myc labels
B12: H4-PC11 humanized antibody (antibody, human IgG1, V domains shown)
VH: EVQLVESGGGLVQPGGSLRLSCAPSPYSANSFSMAWFRQAPGKGREGIACIQAESGSTNVAPSVKGRFTISQDNSKNTLYLQMNSLRAEDTAVYYCAAFKRNVGGCELRPEHWRFWGQGTLVTVSS
notes: not shown: constant region of human IgG1
B13: H5-PC11 humanized antibody (antibody, human IgG1, V domains shown)
VH: EVQLVESGGGLVQPGGSLRLSCAPSPYSANSFSMAWFRQAPGKEREGIACIQAESGSTNVAPSVKGRFTISQDNSKNTLYLQMNSLRAEDTAVYYCAAFKRNVGGCELRPEHWRFWGQGTLVTVSS
notes: as for B12
B14: H1-PA27 humanized antibody (antibody, human IgG1, V domains shown)
VH: QVQLVESGGGVVQPGRSLRLSCAASGRTESWYRMGWVRQAPGKGLEWVARISGDTNIKYYAGSVKGRFTISRDNSKNTLYLQMSSLRAEDTAVYYCAADRTGATWDYWGQGTLVTVSS
notes: also called hPA27; not shown: constant region of human IgG1

Tests used:
[1] = molecular target: T1, Human NKp46 antigen for immunization, screening, and testing (Kactus, NKP-HM146) (human, UniProt O76036 22-255); assay: ELISA, coated antigen, VHH supernatant, anti-Myc HRP
T1 construct: Bought protein; also called human NKp46 antigen protein; human NKp46 protein
Method: (§1) In order to obtain positive antibodies that can cross-bind to human NKp46 and cynomolgus monkey NKp46, the above libraries were amplified and added into M13K07 helper phage and assembled into bacteriophages. 1×10¹² pfu of immune camel antibody library and immune alpaca antibody library were added thereto, and the phages were incubated with biotinylated human NKp46 protein (8 μg/mL) bound to magnetic beads for 1 h at room temperature. After washing off the unbound bacteriophages with 0.05% PBST, the phages specifically bound to NKp46 were eluted with […] triethylamine, and after gradient dilution of the bacteriophages above, E. coli SS320 in the logarithmic growth phase were infected. After being cultured overnight at 37° C. on plates containing ampicillin, single-clone was picked for IPTG-induced expression, and the supernatant was used for ELISA assay. ELISA plates were coated with […] human NKp46 antigen or cynomolgus monkey NKp46 antigen overnight at 4° C., then washed 3 times with 0.05% PBST and blocked with 5% skim milk at room temperature for 1 h, and washed 3 times with 0.05% PBST. Then 30 µL of induced supernatant was then added into per well, medium were added to negative control wells, the ELISA plates were incubated at room temperature for 1 h, and finally detected with anti-Myc HRP (VHH with his and c-Myc labels were expressed by the induction of IPTG. Sequence clones that had OD450 values of greater than 1.0 for binding to human NKp46 and cynomolgus monkey NKp46 as determined by ELISA, and of which the ratio of OD450 values to that of negative control were greater than 3 were sequenced, thereby obtaining amino acid sequences of 30 variable regions of heavy chain antibodies disclosed in the present disclosure, as shown in Table 2.

[2] = molecular target: T2, Cynomolgus monkey NKp46 for immunization, screening, and testing (Kactus, NKP-CM146) (cynomolgus monkey, UniProt Q95JB9 22-254); assay: as above
T2 construct: Bought protein; also called monkey NKp46 antigen protein; cynomolgus monkey NKp46 antigen
Method: as §1

[3] = molecular target: T3, human NKp46 (full length, on cells) (human, UniProt O76036 22-304); assay: cell-based or functional assay
[4] = molecular target: T4, cynomolgus monkey NKp46 (full length, on cells) (cynomolgus monkey, UniProt Q95JB9 22-306); assay: flow cytometry on cynomolgus monkey NKp46-CHOK1 cells
T4 construct: also called cynomolgus monkey NKp46-CHOK1; cynomolgus NKp46-CHOK1
Method: (§2) The stable human NKp46-CHOK1 and cynomolgus monkey NKp46-CHOK1 cell lines obtained in Example 2 were cultured, the cells were digested with 0.25% pancreatic enzyme EDTA for about 5 minutes, and the digestion was terminated with the complete medium. After centrifugation at 1,500 rpm for 5 minutes, the supernatant was discarded, the precipitated cells were resuspended with PBS containing 1% BSA and counted. The cell density was adjusted to 1E6/mL and seeded in a corning-3799 96-well culture plate at 100 μL/well. Aftering centrifuging at 1,500 rpm for 5 minutes, the supernatant was discarded and the precipitate was set aside at 4° C. The antibody solutions were prepared with PBS containing 1% BSA, wherein the antibody solution has an initial concentration was 100 nM, then diluted in 10-fold to obtain 7 gradients: 10⁻⁴ nM, 10⁻³ nM, 10⁻² nM, 10⁻¹ nM, […], and 10² nM. The prepared antibody solutions were used to resuspend the cells, 100 μL/well. The resuspended cell culture plates were incubated in a 4° C. freezer for 1 h. After centrifugation at 1500 rpm for 5 minutes, the supernatant was discarded. The precipitate was washed with 160 μL of PBS containing 1% BSA, the supernatant was discarded, and the cells were stored for later use.
(§3) The Secondary antibody (goat anti human IgG Fc PE) solution was prepared with PBS containing 1% BSA, and diluted 1:200. The cells were resuspended with the prepared secondary antibody solution, 100 μL/well, incubated in a 4° C. freezer for 0.5 h. After centrifugation at 1,500 rpm for 5 minutes, the supernatant was discarded, the precipitated cells were washed with 160 μL of PBS containing 1% BSA, the supernatant was discarded, the cells were resuspended with 100 μL of PBS containing 1% BSA, and filtered in 300-mesh gauze. The mean fluorescence intensity of antibody binding to cells was then analyzed on a flow cytometer. The FCS file was exported from the flow cytometer, the mean fluorescence intensity (hereinafter referred to as MFI) of PE channel was analyzed with Flowjo software, and the mean fluorescence intensity obtained was introduced into the Graphpad to analyze the half binding concentration (hereinafter referred to as EC₅₀) and the top mean fluorescence intensity (Top MFI) of the antibody and the cell.

[5] = molecular target: T3, human NKp46 (full length, on cells); assay: flow cytometry on human NKp46-CHOK1 cells
Method: as §2, §3

T2 sequence (Q95JB9 other isoform, or with tags, fused parts or gaps limits assumed): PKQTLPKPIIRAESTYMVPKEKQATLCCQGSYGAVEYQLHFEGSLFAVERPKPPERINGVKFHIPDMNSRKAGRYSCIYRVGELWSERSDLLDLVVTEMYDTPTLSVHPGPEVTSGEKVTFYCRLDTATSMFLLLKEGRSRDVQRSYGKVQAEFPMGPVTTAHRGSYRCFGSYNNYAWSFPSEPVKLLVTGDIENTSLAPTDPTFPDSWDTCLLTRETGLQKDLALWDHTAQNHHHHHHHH
T3 sequence (O76036 22-304 Q82K): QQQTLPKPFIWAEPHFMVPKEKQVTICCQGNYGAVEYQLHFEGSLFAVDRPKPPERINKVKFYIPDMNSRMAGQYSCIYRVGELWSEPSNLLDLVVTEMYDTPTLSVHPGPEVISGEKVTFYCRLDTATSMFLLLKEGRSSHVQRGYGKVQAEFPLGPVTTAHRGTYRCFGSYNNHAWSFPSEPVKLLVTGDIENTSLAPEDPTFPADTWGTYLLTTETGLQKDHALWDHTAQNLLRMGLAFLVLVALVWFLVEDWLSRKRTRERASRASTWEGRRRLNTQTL
T1 sequence (O76036 other isoform, or with tags, fused parts or gaps limits assumed): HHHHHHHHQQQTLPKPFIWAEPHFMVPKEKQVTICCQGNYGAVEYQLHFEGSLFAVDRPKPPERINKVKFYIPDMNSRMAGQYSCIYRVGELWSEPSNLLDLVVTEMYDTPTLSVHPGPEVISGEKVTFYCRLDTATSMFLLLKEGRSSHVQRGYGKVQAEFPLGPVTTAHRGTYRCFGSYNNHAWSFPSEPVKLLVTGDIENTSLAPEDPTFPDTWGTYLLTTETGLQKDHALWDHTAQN
T4 sequence (Q95JB9 22-306): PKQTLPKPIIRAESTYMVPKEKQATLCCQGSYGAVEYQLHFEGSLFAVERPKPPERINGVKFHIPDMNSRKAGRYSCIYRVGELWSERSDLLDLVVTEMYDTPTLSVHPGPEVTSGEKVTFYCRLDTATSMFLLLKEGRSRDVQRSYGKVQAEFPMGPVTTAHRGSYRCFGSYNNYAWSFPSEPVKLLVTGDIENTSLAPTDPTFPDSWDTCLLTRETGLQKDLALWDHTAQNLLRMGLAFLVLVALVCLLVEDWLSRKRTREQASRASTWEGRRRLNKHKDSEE

| Binder | OD450 [1] | ratio of OD450 to negative control [1] | OD450 [2] | ratio of OD450 to negative control [2] | EC50 of NK cell activation (CD107a-positive NK cells, plate-coated antibody) [3] | Top mean fluorescence intensity (Top MFI), NK cell activation (CD107a) [3] | EC50 [4] | Top MFI [4] | EC50 [5] | Top MFI [5] |
| --- | --- | --- | --- | --- | --- | --- | --- | --- | --- | --- |
| B1 | > 1 | > 3 | > 1 | > 3 |  |  |  |  |  |  |
| B2 | > 1 | > 3 | > 1 | > 3 |  |  |  |  |  |  |
| B3 | > 1 | > 3 | > 1 | > 3 |  |  |  |  |  |  |
| B4 | > 1 | > 3 | > 1 | > 3 |  |  |  |  |  |  |
| B5 | > 1 | > 3 | > 1 | > 3 |  |  |  |  |  |  |
| B6 | > 1 | > 3 | > 1 | > 3 |  |  |  |  |  |  |
| B7 | > 1 | > 3 | > 1 | > 3 |  |  |  |  |  |  |
| B8 | > 1 | > 3 | > 1 | > 3 |  |  |  |  |  |  |
| B9 | > 1 | > 3 | > 1 | > 3 |  |  |  |  |  |  |
| B10 | > 1 | > 3 | > 1 | > 3 |  |  |  |  |  |  |
| B11 | > 1 | > 3 | > 1 | > 3 |  |  |  |  |  |  |
| B12 |  |  |  |  | 1840 pM | 19.3 | 274 pM | 3620 | 305 pM | 7240 |
| B13 |  |  |  |  | 950 pM | 23.6 | 270 pM | 3660 | 302 pM | 7370 |
| B14 |  |  |  |  | > 20000 pM | 6.3 | 338 pM | 2540 | 253 pM | 6000 |
